# Test results as given in the RNAGym collection of RNA variant scans (doi:10.1073/pnas.2313332121).
# Fewer inactive variants are shown than the library holds.
# B1: TPR 5TU (parent)
# chain: GGAUCUUCUCGAUCUAACAAAAAAGACAAAUCUGCCACAAAGCUUGAGAGCAUCUUCGGAUGCAGAGGCGGCAGCCUUCGGUGGCGCGAUAGCGCCAACGUUCUCAACUAUGACACGCAAAACGCGUGCUCCGUUGAAUGGAGUUUAUCAUG
# Variants of: B1
# Assay: polymerase ribozyme fitness, log enrichment relative to wild type (log ratio); higher = more active; in vitro selection for triplet polymerase activity
# Outline: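 Mutant libraries of each subunit of a heterodimeric triplet polymerase ribozyme were built by PCR and transcribed. Each library went through one round of in vitro selection in triplicate: annealing with biotinylated primer, partner subunit and triplets, frozen incubation at −7 °C, gel excision of extended constructs, streptavidin-bead capture and RT-PCR. Input and output libraries were Illumina-sequenced; only genotypes with ≥10 input reads and ≥1 read per output were kept. Fitness is log2(genotype enrichment/wild-type enrichment), using inverse-variance-weighted replicate averages.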
row,Variant,polymerase ribozyme fitness (log ratio)
1,GGAUCUUCUCGAUCUAACAAAAAAGACAAAUCUGCCACAAAGCUUGAGAGCAUCUUCGGAUGCAGAGGCGGCAGCCUUCGCUGGCGCGAUAGCGCCAACGUUCUCAACUAUAACACGCAAAACGCGUGCUCCGUUGUAUGGAGUUUAACAUG [G81C G112A A137U U148A],≤ -4.2
2,GGAUCUUCUCGAUCUAACAAAAAAGACAAAUCUGCCACAAAGCUUGAGAGCAUCUUCGGAUGCAGAGGCGGCAGCCUUCGAUGGCGCGAUAGCGCCAACGUUCGAAACUAUGACACGCAAAACGCGUGCUCCGUUCAAUGGAGUUCAUCAUG [G81A U104G C105A G136C U146C],≤ -4.2
3,GGAUCUUCUCGAUCUAACAAAAAAGACAAAUCUGCCACAAAGCUUGAGAGCAUCUUCGGAUGCAGAGGCGGCAGCCUUCGCUGGCGCGAUAGCGCCAACGUUCUCAACUAUGACACGCAAAACGCGUGCUCCGUUGAAUGAAGUUUAUCAUG [G81C G141A],-1.94
4,GGAUCUUCUCGAUCUAACAAAAAAGACAAAUCUGCCACAAAGCUUGAGAGCAUCUUCGGAUGCAGAGGCGGCAGCCUUCGCUGGCGCGAUAGCGCCAACGUUCUCAACUAUGACACGCAAAACGCGUGCUCCGUUGUAGGGAGAUUAUCAUG [G81C A137U U139G U144A],-3.35
5,GGAUCUUCUCGAUCUAACAAAAAAGACAAAUCUGCCACAAAGCUUGAGAGCAUCUUCGGAUGCAGAGGCGGCAGCCUUCGAUGGCGCGAUAGCGCCAACGUUCUCAACUAUGACACGGAAAACGCGUGCUCCGUUGAAUGGAGUUUAUCAUG [G81A C118G],-1.67
6,GGAUCUUCUCGAUCUAACAAAAAAGACAAAUCUGCCACAAAGCUUGAGAGCAUCUUCGGAUGCAGAGGCGGCAGCCUUCGUUGGCGCGAUAGCGCCAGCGUUCUCAACUAUGACACGCAAAACGCGUGCUCCGUUGAAUGGAGUUUAUCAUG [G81U A98G],-0.549
7,GGAUCUUCUCGAUCUAACAAAAAAGACAAAUCUGCCACAAAGCUUGAGAGCAUCUUCGGAUGCAGAGGCGGCAGCCUUCGCUGGAGCGAUAGCGCCAACGUUCUCAACUAUGACACGCAAAACGCGUGCUCCGUUGAAUGGGGUUUAUCAUG [G81C C85A A142G],-1.69
8,GGAUCUUCUCGAUCUAACAAAAAAGACAAAUCUGCCACAAAGCUUGAGAGCAUCUUCGGAUGCAGAGGCGGCAGCCUUCGUUGCCGCGAUAGCGCCAACGUUCUCAACUAUGACACGGAAAACGCGUGCUCCGUUGAAUGGAGUUUAUCAUG [G81U G84C C118G],-3.16
9,GGAUCUUCUCGAUCUAACAAAAAAGACAAAUCUGCCACAAAGCUUGAGAGCAUCUUCGGAUGCAGAGGCGGCAGCCUUCGCUGGUGCGAUAGCGCCGACGUUCUCAACGAUGACACGCAAAACGCGUGCUCCGUUGAAUGGAGUUUAUCAUG [G81C C85U A97G U109G],-0.959
10,GGAUCUUCUCGAUCUAACAAAAAAGACAAAUCUGCCACAAAGCUUGAGAGCAUCUUCGGAUGCAGAGGCGGCAGCCUUCGGAGGCGCGAUAGCGUCAACGUUCUCAACUAUGACACGCAAAACGCGUGCUCCGUUGAAUGGAGUUUAUCAUG [U82A C95U],-0.587
11,GGAUCUUCUCGAUCUAACAAAAAAGACAAAUCUGCCACAAAGCUUGAGAGCAUCUUCGGAUGCAGAGGCGGCAGCCUUCGUUGGCGCGAUAGCGCCAUCGUUCUCAACUAUGACAAGCAAAACGCGUGCUCCGUUGAAUGGAGUUUAUCAUG [G81U A98U C116A],0.542
12,GGAUCUUCUCGAUCUAACAAAAAAGACAAAUCUGCCACAAAGCUUGAGAGCAUCUUCGGAUGCAGAGGCGGCAGCCUUCGGAGGCGCGAUAGCGCCAACGUUCUCCACUAUGACACGCAAAACGCGUGCUCCGUUGAAUGGAGUUUAUCAUG [U82A A106C],-0.884
13,GGAUCUUCUCGAUCUAACAAAAAAGACAAAUCUGCCACAAAGCUUGAGAGCAUCUUCGGAUGCAGAGGCGGCAGCCUUCGGAGGCGCGAUAGCGCCAACGUUCUCUACUAUGACACGCAAAACGCGUGCUCCGUUGAAUGGAGUUUAUCAUG [U82A A106U],-1.16
14,GGAUCUUCUCGAUCUAACAAAAAAGACAAAUCUGCCACAAAGCUUGAGAGCAUCUUCGGAUGCAGAGGCGGCAGCCUUCGGAGGCGCGAUAGCGCCAACGUUCUUAACUAUGACACGCAAAACGCGUGCUCCGUUGAAUGGAGUUUAUCAUG [U82A C105U],0.242
15,GGAUCUUCUCGAUCUAACAAAAAAGACAAAUCUGCCACAAAGCUUGAGAGCAUCUUCGGAUGCAGAGGCGGCAGCCUUCGGAGGGGCGAUAGCGCCAACGUUCUCAACUAUGACACGCAAAACGCGUGCUCCGUUGAAUGGAGUUUAUCAUG [U82A C85G],-3.05
16,GGAUCUUCUCGAUCUAACAAAAAAGACAAAUCUGCCACAAAGCUUGAGAGCAUCUUCGGAUGCAGAGGCGGCAGCCUUCGAUGGCGCGAUAGCGCAACCGUUCUCAACUAUGACACGCAAAACGCGUGCUCCGUUGAAUGGAGUUUAUCAUG [G81A C96A A98C],-0.656
17,GGAUCUUCUCGAUCUAACAAAAAAGACAAAUCUGCCACAAAGCUUGAGAGCAUCUUCGGAUGCAGAGGCGGCAGCCUUCGUUGGCGCGAUAGCGCCAACGUUCUCAACUAUGACACGCAAAACGAGUGCUCCGUUGAAUGGAGUUUAUCAUG [G81U C125A],-0.8
18,GGAUCUUCUCGAUCUAACAAAAAAGACAAAUCUGCCACAAAGCUUGAGAGCAUCUUCGGAUGCAGAGGCGGCAGCCUUCGGAGGCGCGAUAGCGCCAACGUUCUCAAUUAUGACACGCAAAACGCGUGCUCCGUUGAAUGGAGUUUAUCAUG [U82A C108U],-2.39
19,GGAUCUUCUCGAUCUAACAAAAAAGACAAAUCUGCCACAAAGCUUGAGAGCAUCUUCGGAUGCAGAGGCGGCAGCCUUCGUUGGCGCGACAGCGCCAAAGUUCUCAACUAUGACACGCAAAACGCGUGCUCCGUUGAAUGGGGUUUAUCAUG [G81U U90C C99A A142G],≤ -4.2

row,Variant,polymerase ribozyme fitness (log ratio)
1,GGAUCUUCUCGAUCUAACAAAAAAGACAAAUCUGCCACAAAGCUUGAGAGCAUCUUCGGAUGCAGAGGCGGCAGCCUUCGCUGGCGCGAUAGGGCCAACGUUCUCAACUAUGCCAUACAAAACGCGUGAUCCGUUGAAUGGAGUUUAUCAUG [G81C C93G A113C C116U G117A C129A],≤ -4.2
2,GGAUCUUCUCGAUCUAACAAAAAAGACAAAUCUGCCACAAAGCUUGAGAGCAUCUUCGGAUGCAGAGGCGGCAGCCUUCGGAGGCGCGAUAGCGCCAACGUUCUCACCUAUGACACGCAAAACGCGUGCUCCGUUGAAUGGAGUUUAUCAUG [U82A A107C],-3.72
3,GGAUCUUCUCGAUCUAACAAAAAAGACAAAUCUGCCACAAAGCUUGAGAGCAUCUUCGGAUGCAGAGGCGGCAGCCUUCGCUGGCGUGAUAGCGCCAACCUUCUCAACUAUGACACACAAAACGCCUGCUCCGUUGAAUGGAGUUUAUCAUG [G81C C87U G100C G117A G126C],≤ -4.2
4,GGAUCUUCUCGAUCUAACAAAAAAGACAAAUCUGCCACAAAGCUUGAGAGCAUCUUCGGAUGCAGAGGCGGCAGCCUUCGAUGGCGCGAUACCGCCAAUGUUCUCAACUAUGACACGCAAAACCCGUGCUCCUUUGAAUGGAGUUUAUCAUG [G81A G92C C99U G124C G133U],≤ -4.2
5,GGAUCUUCUCGAUCUAACAAAAAAGACAAAUCUGCCACAAAGCUUGAGAGCAUCUUCGGAUGCAGAGGCGGCAGCCUUCGUUGGGGCGAUAGCGCCAACGUUCUCAACUAUGACACGCAAAACGCGUGCUCCGUUGAAUGGAGUUUAUCAUG [G81U C85G],-1.76
6,GGAUCUUCUCGAUCUAACAAAAAAGACAAAUCUGCCACAAAGCUUGAGAGCAUCUUCGGAUGCAGAGGCGGCAGCCUUCGGAGGCGCGAUAGUGCCAACGUUCUCAACUGUGACACGCAAAACGCGUGCUCCGUUGAAUGGAGUUUAUCAUG [U82A C93U A110G],-4.09
7,GGAUCUUCUCGAUCUAACAAAAAAGACAAAUCUGCCACAAAGCUUGAGAGCAUCUUCGGAUGCAGAGGCGGCAGCCUUCGCUGGCGCAAUAGCGCCAACGUUCUCACCUAUGACACGCAAAACGAGUGCUUCGUUGAAUGGAGUUUAUCAUG [G81C G88A A107C C125A C131U],≤ -4.2
8,GGAUCUUCUCGAUCUAACAAAAAAGACAAAUCUGCCACAAAGCUUGAGAGCAUCUUCGGAUGCAGAGGCGGCAGCCUUCGCUGGCGCGAUAGCGCCAACGUUCUCAUCUAUGACACGCAAAACGCGUGCUCCGUUGAAUGGAGUUUAUCAUG [G81C A107U],-3.29
9,GGAUCUUCUCGAUCUAACAAAAAAGACAAAUCUGCCACAAAGCUUGAGAGCAUCUUCGGAUGCAGAGGCGGCAGCCUUCGCUGGCGCGCUAGCGCCAUCGUUCUCAUCUAUGACACGCAAAACGCGUGCUCCGUUGAAUGGAGCUUAUCAUG [G81C A89C A98U A107U U144C],≤ -4.2
10,GGAUCUUCUCGAUCUAACAAAAAAGACAAAUCUGCCACAAAGCUUGAGAGCAUCUUCGGAUGCAGAGGCGGCAGCCUUCGCUGGCGCGAUAGCGCCAACGUUCUCAACUAUGACACUCAAAACGCGUGCUCCGUUGAAUGGAGUUUAUCAUG [G81C G117U],0.139
11,GGAUCUUCUCGAUCUAACAAAAAAGACAAAUCUGCCACAAAGCUUGAGAGCAUCUUCGGAUGCAGAGGCGGCAGCCUUCGAUGACGCGAUAGCGCCAACGUUCUCAACUAUGACACGCAAAACGCGUGCUCCGUUGAAUGGAGUUUAUCAUG [G81A G84A],-0.338
12,GGAUCUUCUCGAUCUAACAAAAAAGACAAAUCUGCCACAAAGCUUGAGAGCAUCUUCGGAUGCAGAGGCGGCAGCCUUCGUUGGCGCGAUAGCGCUAACGUUCUCAUCUAUGACACGCAAAACGCGUGCUCCGUUGAAUGGAGUCUAUCAUG [G81U C96U A107U U145C],-3.1
13,GGAUCUUCUCGAUCUAACAAAAAAGACAAAUCUGCCACAAAGCUUGAGAGCAUCUUCGGAUGCAGAGGCGGCAGCCUUCGCUGGCGCGAUAGAGCCAACGUUCUCAACUAUGACACGCAAAACGCGUGCUCCGUUGAAUGGAGUUUAUCAUG [G81C C93A],-2.57
14,GGAUCUUCUCGAUCUAACAAAAAAGACAAAUCUGCCACAAAGCUUGAGAGCAUCUUCGGAUGCAGAGGCGGCAGCCUUCGCUGGCGCGAUAGGGCCAACGUUCUCAACUAUGACACGCAAAACGCGUGCUCCGUUGAAUGGAGUUUAUCAUG [G81C C93G],-3.69
15,GGAUCUUCUCGAUCUAACAAAAAAGACAAAUCUGCCACAAAGCUUGAGAGCAUCUUCGGAUGCAGAGGCGGCAGCCUUCGGAGGCGCGAUAGCGCAAACGUUCUCAACUGUGACACGCAAAACGCGUGCUCCGUUGGAUGGAGUUUAUCAUG [U82A C96A A110G A137G],-3.99
16,GGAUCUUCUCGAUCUAACAAAAAAGACAAAUCUGCCACAAAGCUUGAGAGCAUCUUCGGAUGCAGAGGCGGCAGCCUUCGCUGGCGCGAUAGCGCCAACGUUCUCAACUAUGACACCCAAAACGCGUGCUCCGUUGAAUGGAUUUUAUCAUG [G81C G117C G143U],-4.1
17,GGAUCUUCUCGAUCUAACAAAAAAGACAAAUCUGCCACAAAGCUUGAGAGCAUCUUCGGAUGCAGAGGCGGCAGCCUUCGGAAGCGCGAUAGCGCCAGCGUUCUCAACUAUGACACGCAAAACGCGCGCUCCGUUGAAUGGAGUUUAUCAUG [U82A G83A A98G U127C],-3.36
18,GGAUCUUCUCGAUCUAACAAAAAAGACAAAUCUGCCACAAAGCUUGAGAGCAUCUUCGGAUGCAGAGGCGGCAGCCUUCGAUGGCGCGAUAGCGACAACGUUAUCAACUAUGACACGCAAAACGCGUGCUCCGUUGAAUGGAGUUUAUCAUG [G81A C95A C103A],-2.93
19,GGAUCUUCUCGAUCUAACAAAAAAGACAAAUCUGCCACAAAGCUUGAGAGCAUCUUCGGAUGCAGAGGCGGCAGCCUUCGUUGCCGCGAUAGCGCCAACGUUCUCAACUAUGACACGCAAAACGCGUGCUCCGUUGAAUGGAGUUUAUCAUG [G81U G84C],-3.22
